{"source": "patent US20160340403A1", "about": "(published 2016)", "key": {"[1]": {"biological_target": "PE-conjugated HLA-A*02:01/MART1 26-35 heteroclitic multimer (Proimmune) (human)", "test": "structural avidity: flow cytometry, graded A2/MART1 multimer on Jurkat76 transfectants without CD8"}, "[2]": {"biological_target": "HLA-A*02:01 presenting MART1 27-35 peptide (…) on peptide-pulsed T2 cells (human)", "test": "cell-based or functional assay"}, "[3]": {"biological_target": "PE-conjugated HLA-A*02:01/MART1 26-35 heteroclitic multimer (Proimmune) (human)", "test": "structural avidity: flow cytometry, graded A2/MART1 multimer on Jurkat76/CD8αβ transfectants"}, "[4]": {"biological_target": "MART1 peptide on HLA-A*02:01 (human)", "test": "IL-2 ELISPOT; Jurkat76/CD8αβ transfectants; T2 cells pulsed with graded concentrations of MART1 27-35 peptide; full-length, on cells"}, "[5]": {"biological_target": "MART1 peptide on HLA-A*02:01 (human)", "test": "IL-2 ELISPOT; Jurkat76 transfectants without CD8; T2 cells pulsed with graded concentrations of MART1 27-35 peptide; full-length, on cells"}, "[6]": {"biological_target": "MART1 peptide on HLA-A*02:01 (human)", "test": "staining with graded concentrations of A2/MART1 multimer; Jurkat76 transfectants without CD8; full-length, on cells"}, "[7]": {"biological_target": "MART1 peptide on HLA-A*02:01 (human)", "test": "staining with graded concentrations of A2/MART1 multimer; Jurkat76/CD8αβ transfectants; full-length, on cells"}, "[8]": {"biological_target": "MART1 peptide on HLA-A*02:01 (human)", "test": "staining with graded concentrations of A2/MART1 multimer; Jurkat76 transfectants without CD8; full-length, on cells", "conditions": "heteroclitic peptide, residues not given"}, "[9]": {"biological_target": "MART1 peptide on HLA-A*02:01 (human)", "test": "staining with graded concentrations of A2/MART1 multimer; Jurkat76/CD8αβ transfectants; full-length, on cells", "conditions": "heteroclitic peptide, residues not given"}, "[10]": {"biological_target": "T1, WT1 peptide on HLA-A*24:02 (human, heteroclitic peptide as printed; the natural WT1 235-243 residues are not given)", "T1 peptide": "CYTWNQMNL", "test": "cytokine release"}, "[11]": {"conditions": "chains Valpha:beta TRBV27 TRBJ1-2 CDR3"}, "[12]": {"conditions": "chains Valpha:beta TRBV27 TRBJ2-7 CDR3"}}, "data": [{"molecule": "A2/MART1-specific TCR, clone DMF5", "values": [{"measurement": "EC50", "setting": "[1]", "result": 0.03, "unit": "µg/mL"}, {"measurement": "Functional avidity w/CD8 EC50 (IL-2 ELISPOT, peptide-pulsed T2 cells)", "setting": "[2]", "result": 0.33, "unit": "µM"}, {"measurement": "Functional avidity w/o CD8 EC50 (IL-2 ELISPOT, peptide-pulsed T2 cells)", "setting": "[2]", "result": 1.4, "unit": "µM"}, {"measurement": "Functional avidity with CD8 EC50 (IL-2 ELISPOT, peptide-pulsed T2 cells)", "setting": "[2]", "result": 0.102, "unit": "µg/mL"}, {"measurement": "Functional avidity without CD8 EC50 (IL-2 ELISPOT, peptide-pulsed T2 cells)", "setting": "[2]", "result": 0.363, "unit": "µg/mL"}, {"measurement": "EC50", "setting": "[3]", "result": 0.02, "unit": "µg/mL"}]}, {"molecule": "DMF5 TCR", "values": [{"measurement": "EC50 of peptide", "setting": "[4]", "result": 330, "unit": "nM"}, {"measurement": "EC50 of peptide", "setting": "[5]", "result": 1400, "unit": "nM"}, {"measurement": "EC50 of multimer (structural avidity)", "setting": "[6]", "result": 0.03, "unit": "µg/mL"}, {"measurement": "EC50 of multimer (structural avidity)", "setting": "[7]", "result": 0.02, "unit": "µg/mL"}]}, {"molecule": "Clone 1086 (SIG35α with clone 1086 TCRβ) (protein) chain 1: QKEVEQNSGPLSVPEGAIASLNCTYSDRGSQSFFWYRQYSGKSPELIMFIYSNGDKEDGRFTAQLNKASQYVSLLIRDSQPSDSATYLCAVSIGFGNVLHCGSGTQVIVLP chain 2: CASSLHGPGGYTF", "values": [{"measurement": "EC50 of multimer (structural avidity)", "setting": "[8]; [11]", "result": 0.04, "unit": "µg/mL"}, {"measurement": "EC50 of multimer (structural avidity)", "setting": "[9]; [11]", "result": 0.01, "unit": "µg/mL"}]}, {"molecule": "Clone 788 (SIG35α with clone 788 TCRβ) (protein) chain 1: QKEVEQNSGPLSVPEGAIASLNCTYSDRGSQSFFWYRQYSGKSPELIMFIYSNGDKEDGRFTAQLNKASQYVSLLIRDSQPSDSATYLCAVSIGFGNVLHCGSGTQVIVLP chain 2: CASGPSYEQYF", "values": [{"measurement": "EC50 of multimer (structural avidity)", "setting": "[8]; [12]", "result": 0.05, "unit": "µg/mL"}, {"measurement": "EC50 of multimer (structural avidity)", "setting": "[9]; [12]", "result": 0.01, "unit": "µg/mL"}]}, {"molecule": "Clone 523 (SIG35α with clone 523 TCRβ) (protein) chain 1: QKEVEQNSGPLSVPEGAIASLNCTYSDRGSQSFFWYRQYSGKSPELIMFIYSNGDKEDGRFTAQLNKASQYVSLLIRDSQPSDSATYLCAVSIGFGNVLHCGSGTQVIVLP chain 2: CASGSYEQYF", "values": [{"measurement": "EC50 of multimer (structural avidity)", "setting": "[9]; [12]", "result": 0.3, "unit": "µg/mL"}]}, {"molecule": "Clone T53 (T53 TCRα with TAK1β) (TCR, V domains shown) Valpha: EDKVVQSPLSLVVHEGDTVTLNCSYEVTNFRSLLWYKQEKKAPTFLFMLTSSGIEKKSGRLSSILDKKELFSILNITATQTGDSAVYLCAVITGGTSYGKLTFGQGTILTVHP Vbeta: LAGVTQTPRYLIKTRGQQVTLSCSPISGHRSVSWYQQTPGQGLQFLFEYFSETQRNKGNFPGRFSGRQFSNSRSEMNVSTLELGDSALYLCASSLGWRETYNEQFFGPGTRLTVL", "values": [{"measurement": "binding result", "setting": "[10]", "result": "recognises"}]}, {"molecule": "Clone A262 (A262 TCRα with TAK1β) (TCR, V domains shown) Valpha: EDKVVQSPLSLVVHEGDTVTLNCSYEVTNFRSLLWYKQEKKAPTFLFMLTSSGIEKKSGRLSSILDKKELFSILNITATQTGDSATYLCAVQNAGGTSYGKLTFGQGTILTVHP Vbeta: LAGVTQTPRYLIKTRGQQVTLSCSPISGHRSVSWYQQTPGQGLQFLFEYFSETQRNKGNFPGRFSGRQFSNSRSEMNVSTLELGDSALYLCASSLGWRETYNEQFFGPGTRLTVL", "values": [{"measurement": "binding result", "setting": "[10]", "result": "recognises"}]}, {"molecule": "Clone T243 (T243 TCRα with TAK1β) (TCR, V domains shown) Valpha: EDKVVQSPLSLVVHEGDTVTLNCSYEVTNFRSLLWYKQEKKAPTFLFMLTSSGIEKKSGRLSSILDKKELFSILNITATQTGDSAVYLCAVLTQTGANNLFFGTGTRLTVIP Vbeta: LAGVTQTPRYLIKTRGQQVTLSCSPISGHRSVSWYQQTPGQGLQFLFEYFSETQRNKGNFPGRFSGRQFSNSRSEMNVSTLELGDSALYLCASSLGWRETYNEQFFGPGTRLTVL", "values": [{"measurement": "binding result", "setting": "[10]", "result": "recognises"}]}, {"molecule": "Clone T262 (T262 TCRα with TAK1β) (TCR, V domains shown) Valpha: EDQVTQSPEALRLQEGESSSLNCSYTVSGLRGLFWYRQDPGKGPEFLFTLYSAGEEKEKERLKATLTKKESFLHITAPKPEDSATYLCAVQALRNNAGNNRKLIWGLGTSLAVNP Vbeta: LAGVTQTPRYLIKTRGQQVTLSCSPISGHRSVSWYQQTPGQGLQFLFEYFSETQRNKGNFPGRFSGRQFSNSRSEMNVSTLELGDSALYLCASSLGWRETYNEQFFGPGTRLTVL", "values": [{"measurement": "binding result", "setting": "[10]", "result": "recognises"}]}]}
